What was measured:
[1] = target: T1, human CD3 (TCR/CD3 complex on the cell surface) (human, UniProt P07766 23-207; P04234 22-171; P09693 23-182); assay: flow cytometry, Pan-T cells, 1 ug/mL
T1 construct: whole, on cells; Native CD3 on human Pan-T cells or Jurkat wild-type cells; also called CD3 on Pan-T cells; CD3 on Jurkat WT cells

[2] = target: T1, human CD3 (TCR/CD3 complex on the cell …); assay: flow cytometry, Jurkat WT gMFI over Jurkat KO gMFI, 1 ug/mL
[3] = target: T1, human CD3 (TCR/CD3 complex on the cell …); assay: flow cytometry, Jurkat WT cells, 10 ug/mL
[4] = target: T1, human CD3 (TCR/CD3 complex on the cell …); assay: flow cytometry, Pan-T cells, 10 ug/mL
[5] = target: T1, human CD3 (TCR/CD3 complex on the cell …); assay: flow cytometry, Jurkat WT gMFI over Jurkat KO gMFI, 10 ug/mL
[6] = target: T1, human CD3 (TCR/CD3 complex on the cell …); assay: flow cytometry, Jurkat WT cells, 1 ug/mL

T1 sequence (P07766 23-207, chain 1 of 3): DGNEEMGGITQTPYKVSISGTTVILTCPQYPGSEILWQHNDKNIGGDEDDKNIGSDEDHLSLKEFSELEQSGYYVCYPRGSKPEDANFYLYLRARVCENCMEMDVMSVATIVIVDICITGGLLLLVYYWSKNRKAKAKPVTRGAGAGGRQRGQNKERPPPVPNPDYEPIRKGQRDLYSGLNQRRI
T1 sequence (P04234 22-171, chain 2 of 3): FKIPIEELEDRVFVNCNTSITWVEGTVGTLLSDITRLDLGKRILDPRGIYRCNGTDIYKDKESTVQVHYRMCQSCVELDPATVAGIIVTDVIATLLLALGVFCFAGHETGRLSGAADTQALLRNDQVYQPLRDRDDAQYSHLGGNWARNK
T1 sequence (P09693 23-182, chain 3 of 3): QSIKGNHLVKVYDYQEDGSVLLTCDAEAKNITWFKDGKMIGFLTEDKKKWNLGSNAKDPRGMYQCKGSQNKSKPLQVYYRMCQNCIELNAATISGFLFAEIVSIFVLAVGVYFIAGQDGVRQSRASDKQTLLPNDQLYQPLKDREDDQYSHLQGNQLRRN

Row | Binder | % Positive [1] [%] | gMFI [1] [gMFI] | Jurkat WT/KO (Fold) [2] [fold] | gMFI [3] [gMFI] | % Positive [4] [%] | gMFI [4] [gMFI] | Jurkat WT/KO (Fold) [5] [fold] | gMFI [6] [gMFI]
1 | CD3 × CD33-BspAb76 (bispecific antibody) chain 1: EVQLVESGGGLVKPGGSLRLSCAASGFTFSSYSMNWVRQAPGKCLEWVSSISRRSGYIYYADSVKGRFTLSRDNAKKSLYLQMNSLRAEDTAVYYCARDLNWAFDYWGQGTLVTVSSGGGGSGGGGSGGGGSGGGGSNFMLTQPHSVSESPGKTVTISCTRSSGSIASNYVQWYQQRPGSSPTTVIYEDNHRPSGVPDRFSGSIDSSSNSASLTIAGLKTEDEADYYCQSSDSSNVVFGCGTKLTVLDKTHTCPPCPAPEFEGGPSVFLFPPKPKDTLMISRTPEVTCVVVDVSHEDPEVKFNWYVDGVEVHNAKTKPREEQYNSTYRVVSVLTVLHQDWLNGKEYKCKVSNKALPASIEKTISKAKGQPREPQVYTLPPCREEMTKNQVSLWCLVKGFYPSDIAVEWESNGQPENNYKTTPPVLDSDGSFFLYSKLTVDKSRWQQGNVFSCSVMHEALHNHYTQKSLSLSPGK chain 2: EVQLVQSGAEVKKPGSSVKVSCKASGYTITDSNIHWVRQAPGQSLEWIGYIYPYNGGTDYNQKFKNRATLTVDNPTNTAYMELSSLRSEDTAFYYCVNGNPWLAYWGQGTLVTVSSASTKGPSVFPLAPSSKSTSGGTAALGCLVKDYFPEPVTVSWNSGALTSGVHTFPAVLQSSGLYSLSSVVTVPSSSLGTQTYICNVNHKPSNTKVDKRVEPKSCDKTHTCPPCPAPEFEGGPSVFLFPPKPKDTLMISRTPEVTCVVVDVSHEDPEVKFNWYVDGVEVHNAKTKPREEQYNSTYRVVSVLTVLHQDWLNGKEYKCKVSNKALPASIEKTISKAKGQPREPQVCTLPPSREEMTKNQVSLSCAVKGFYPSDIAVEWESNGQPENNYKTTPPVLDSDGSFFLVSKLTVDKSRWQQGNVFSCSVMHEALHNRFTQKSLSLSPGK chain 3: DIQLTQSPSTLSASVGDRVTITCRASESLDNYGIRFLTWFQQKPGKAPKLLMYAASNQGSGVPSRFSGSGSGTEFTLTISSLQPDDFATYYCQQTKEVPWSFGQGTKVEVKRTVAAPSVFIFPPSDEQLKSGTASVVCLLNNFYPREAKVQWKVDNALQSGNSQESVTEQDSKDSTYSLSSTLTLSKADYEKHKVYACEVTHQGLSSPVTKSFNRGEC | 50.2 | 6790 | 1.5 | 9780 | 99.5 | 43400 | 4.4 | 3180
2 | CD3 × CD33-BspAb78 (bispecific antibody) chain 1: EVQLVESGGGLVKFGGSLRLSCAASGFTFSRYSMNWVRQAPGKCLEWVSSISSSSSYKYYADSVKGRFTISRDNAKNSLYLQMNSLRAEDTAVYYCAREGGNSHGMDVWGQGTTVTVSSGGGGSGGGGSGGGGSGGGGSNFMLTQPHSVSESPGKTVTISCTRSSGSIASNYVQWYQQRPGSSPTTVIYEDNQRPSGVPDRFSGSIDSSSNSASLTISGLKTEDEADYYCQSYDSSNRVFGCGTKLTVLDKTHTCPPCPAPEFEGGPSVFLFPPKPKDTLMISRTPEVTCVVVDVSHEDPEVKFNWYVDGVEVHNAKTKPREEQYNSTYRVVSVLTVLHQDWLNGKEYKCKVSNKALPASIEKTISKAKGQPREPQVYTLPPCREEMTKNQVSLWCLVKGFYPSDIAVEWESNGQPENNYKTTPPVLDSDGSFFLYSKLTVDKSRWQQGNVFSCSVMHEALHNHYTQKSLSLSPGK chain 2: EVQLVQSGAEVKKPGSSVKVSCKASGYTITDSNIHWVRQAPGQSLEWIGYIYPYNGGTDYNQKFKNRATLTVDNPTNTAYMELSSLRSEDTAFYYCVNGNPWLAYWGQGTLVTVSSASTKGPSVFPLAPSSKSTSGGTAALGCLVKDYFPEPVTVSWNSGALTSGVHTFPAVLQSSGLYSLSSVVTVPSSSLGTQTYICNVNHKPSNTKVDKRVEPKSCDKTHTCPPCPAPEFEGGPSVFLFPPKPKDTLMISRTPEVTCVVVDVSHEDPEVKFNWYVDGVEVHNAKTKPREEQYNSTYRVVSVLTVLHQDWLNGKEYKCKVSNKALPASIEKTISKAKGQPREPQVCTLPPSREEMTKNQVSLSCAVKGFYPSDIAVEWESNGQPENNYKTTPPVLDSDGSFFLVSKLTVDKSRWQQGNVFSCSVMHEALHNRFTQKSLSLSPGK chain 3: DIQLTQSPSTLSASVGDRVTITCRASESLDNYGIRFLTWFQQKPGKAPKLLMYAASNQGSGVPSRFSGSGSGTEFTLTISSLQPDDFATYYCQQTKEVPWSFGQGTKVEVKRTVAAPSVFIFPPSDEQLKSGTASVVCLLNNFYPREAKVQWKVDNALQSGNSQESVTEQDSKDSTYSLSSTLTLSKADYEKHKVYACEVTHQGLSSPVTKSFNRGEC | 98 | 66500 | 6.6 | 28800 | 99.8 | 225000 | 9.9 | 20300
3 | CD3 × CD33-BspAb79 (bispecific antibody) chain 1: QVQLQESGPGLVKPSETLSLTCTVSGGSISSYYWSWIRQPAGKCLEWIGRIYASGSTYYNPSLKSRVTMSVDTSKNQFSLKLSSVTAADTAVYYCAREKRSRLYFDYWGQGTLVTVSSGGGGSGGGGSGGGGSGGGGSNFMLTQPHSVSESPGKTVTISCTRSSGSIASNYVQWYQQRPGSSPTTVIYEDNQRPSGVPDRFSGSIDSSSNSASLTISGLKTEDEGDYYCQSYDRSNRVFGCGTKLTVLDKTHTCPPCPAPEFEGGPSVFLFPPKPKDTLMISRTPEVTCVVVDVSHEDPEVKFNWYVDGVEVHNAKTKPREEQYNSTYRVVSVLTVLHQDWLNGKEYKCKVSNKALPASIEKTISKAKGQPREPQVYTLPPCREEMTKNQVSLWCLVKGFYPSDIAVEWESNGQPENNYKTTPPVLDSDGSFFLYSKLTVDKSRWQQGNVFSCSVMHEALHNHYTQKSLSLSPGK chain 2: EVQLVQSGAEVKKPGSSVKVSCKASGYTITDSNIHWVRQAPGQSLEWIGYIYPYNGGTDYNQKFKNRATLTVDNPTNTAYMELSSLRSEDTAFYYCVNGNPWLAYWGQGTLVTVSSASTKGPSVFPLAPSSKSTSGGTAALGCLVKDYFPEPVTVSWNSGALTSGVHTFPAVLQSSGLYSLSSVVTVPSSSLGTQTYICNVNHKPSNTKVDKRVEPKSCDKTHTCPPCPAPEFEGGPSVFLFPPKPKDTLMISRTPEVTCVVVDVSHEDPEVKFNWYVDGVEVHNAKTKPREEQYNSTYRVVSVLTVLHQDWLNGKEYKCKVSNKALPASIEKTISKAKGQPREPQVCTLPPSREEMTKNQVSLSCAVKGFYPSDIAVEWESNGQPENNYKTTPPVLDSDGSFFLVSKLTVDKSRWQQGNVFSCSVMHEALHNRFTQKSLSLSPGK chain 3: DIQLTQSPSTLSASVGDRVTITCRASESLDNYGIRFLTWFQQKPGKAPKLLMYAASNQGSGVPSRFSGSGSGTEFTLTISSLQPDDFATYYCQQTKEVPWSFGQGTKVEVKRTVAAPSVFIFPPSDEQLKSGTASVVCLLNNFYPREAKVQWKVDNALQSGNSQESVTEQDSKDSTYSLSSTLTLSKADYEKHKVYACEVTHQGLSSPVTKSFNRGEC | 99.3 | 34700 | 4 | 20400 | 99.4 | 166000 | 8.9 | 8830
4 | CD3 × CD33-BspAb77 (bispecific antibody) chain 1: EVQLVESGGGLVKPGGSLRLSCAASGFTFSTYIMNWVRQAPGKCLEWVSSISSSRSYIYYADSVKGRFTISRDNAKNSLYLQMNSLRAEDTAVYYCAREDRYRLFFDYWGQGTLVTVSSGGGGSGGGGSGGGGSGGGGSNFMLTQPHSVSESPGKTVTISCTRSSGSIASNYVQWYQQRPGSSPTTVIYEDNQRPSGVPDRFSGSIDSSSNSASLTISGLKTEDEADYYCQSYDSSNRVFGCGTKLTVLDKTHTCPPCPAPEFEGGPSVFLFPPKPKDTLMISRTPEVTCVVVDVSHEDPEVKFNWYVDGVEVHNAKTKPREEQYNSTYRVVSVLTVLHQDWLNGKEYKCKVSNKALPASIEKTISKAKGQPREPQVYTLPPCREEMTKNQVSLWCLVKGFYPSDIAVEWESNGQPENNYKTTPPVLDSDGSFFLYSKLTVDKSRWQQGNVFSCSVMHEALHNHYTQKSLSLSPGK chain 2: EVQLVQSGAEVKKPGSSVKVSCKASGYTITDSNIHWVRQAPGQSLEWIGYIYPYNGGTDYNQKFKNRATLTVDNPTNTAYMELSSLRSEDTAFYYCVNGNPWLAYWGQGTLVTVSSASTKGPSVFPLAPSSKSTSGGTAALGCLVKDYFPEPVTVSWNSGALTSGVHTFPAVLQSSGLYSLSSVVTVPSSSLGTQTYICNVNHKPSNTKVDKRVEPKSCDKTHTCPPCPAPEFEGGPSVFLFPPKPKDTLMISRTPEVTCVVVDVSHEDPEVKFNWYVDGVEVHNAKTKPREEQYNSTYRVVSVLTVLHQDWLNGKEYKCKVSNKALPASIEKTISKAKGQPREPQVCTLPPSREEMTKNQVSLSCAVKGFYPSDIAVEWESNGQPENNYKTTPPVLDSDGSFFLVSKLTVDKSRWQQGNVFSCSVMHEALHNRFTQKSLSLSPGK chain 3: DIQLTQSPSTLSASVGDRVTITCRASESLDNYGIRFLTWFQQKPGKAPKLLMYAASNQGSGVPSRFSGSGSGTEFTLTISSLQPDDFATYYCQQTKEVPWSFGQGTKVEVKRTVAAPSVFIFPPSDEQLKSGTASVVCLLNNFYPREAKVQWKVDNALQSGNSQESVTEQDSKDSTYSLSSTLTLSKADYEKHKVYACEVTHQGLSSPVTKSFNRGEC | 92.5 | 37800 | 3.6 | 22100 | 99.8 | 188000 | 8.6 | 8960

— US20260167721A1 (ABLEXIS, published 2026)
